Assay results from US20210292393A1 (published 2021).

B1: antibody 504 (antibody, V domains shown)
VH: QVQLVESGGGVVQPGRSLRLSCAASGFTFSSYGMHWVRQAPGKGLEWVAVISYDGSNKYYADSVKGRFTISRDNSKNTLYLQMNSLRAEDTAVYYCAKGGGGGYCSGGSCYSHYFDYWGQGTLVTVSS
VL: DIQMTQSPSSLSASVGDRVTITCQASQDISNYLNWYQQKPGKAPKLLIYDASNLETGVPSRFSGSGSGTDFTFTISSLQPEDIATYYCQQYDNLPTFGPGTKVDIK
B2: antibody 509 (antibody, V domains shown)
VH: QVQLVESGGGVVQPGRSLRLSCAASGFNLSSYAMHWVRQASGKGLEWVSLISYDGSIKYYTDSVKGRFTVSGDNSKNTLFLQMNSLRADDSALYYCVRGGVSGPNSFDLWGQGTTVTVSS
VL: DVVMTQSPLSLPVTLGQPASISCRSSQSLVYSDGNTYVNWFQQRPGQSPRRLIYKVSIRASGVPDRFSGSGSGTDFALKISRVEAEDVGVYYCMQGTHWPVTFGQGTKVEIK
B3: antibody 517 (antibody, V domains shown)
VH: QVQLVESGGGVVQPGRSLRLSCAASGFNLSNYAMHWVRQASGKGLEWVSLISYDGSIKYYTDSVKGRFTVSGDNSKNTLFLQMNSLRADDSALYYCVRGGVSGPNSFDMWGQGTTVTVSS
VL: DVVMTQSPLSLPVTLGQPASISCRSSQSLVYSDGNTYVNWFQQRPGQSPRRLIYQVSIRASGVPDRFSGSGSGTDFALKISRVEAEDVGVYYCMQGTHWPVTFGQGTKVEIK
B4: antibody 522 (antibody, V domains shown)
VH: EVQLVESGGGLVQPGGSLRLSCAASGFNFSSYSMNWVRQAPGKGLEWVSYISSSSSTIYYADSVKGRFTISRDNAKNSLYLQMNSLRDEDTAVYYCARGPEWDIVVVQAENWFDPWGQGTLVTVSS
VL: SYELTQPPSVSVSPGQTARITCSGDALPKQYVYWYQQKPGQAPVLVIYKDSERPSGIPERFSGSSSGTTVTLTISGVQAEDEADYYCQSADSSGTYRGVFGGGTKLTVL
B5: antibody 523 (antibody, V domains shown)
VH: EVQLVESGGVSVQPGGSLRLSCAASGFSFNTYDMHWVRQGTGKGLEWVSGIGTAGDTYYSDSVKGRCTISRDNAKNSLHLLVKSVRAADTAVYYCARGVGGIIDYWGQGTLVTVSS
VL: NFVLSQPHSVSESPGKTVTISCTGNSGSIATKYVQWFQQRPGSAPTTVIYEDNQRPSGVPDRFSGSSDSSSNSASLTISGLKTEDEAHYYCQSYHNRRWVFGGGTKLTVL
B6: antibody 527 (antibody, V domains shown)
VH: QLQLQESGPGLVKPSETLSLTCTVSGGSISSSSYYWGWIRQPPGKGLEWIGSIYYSGSTYYNPSLKSRVTISVDTSKNQFSLKLSSVTAADTAMYYCASHVVVIASSYWCFDLWGRGTLVTVSS
VL: QSALTQPASVSGSPGQSITISCTGTSSDVGGYNYVSWYQQHPGKAPKLMIYDVSNRPSGVSNRFSGSKSGNTASLTISGLQAEDEADYYCSSYTSISTWVFGGGTKLTVL
B7: antibody 533 (antibody, V domains shown)
VH: GVQLVESGGVVVQPGGSLRLSCAASGFSFDDYTMHWVRQAPGKGLEWVSLVSWDGGTTYYTDSVKGRFTISRDNSKNSLYLQMNSLRTEDTALYFCAKDSGRIVPAATFDYWGQGTLVTVSS
VL: DIQMTQSSSSLSASVGDRVTITCRASQDISNYLAWFQQKPGKAPKSLIYAASSLQSGVPSKFSGSGSGTDFTLTISSLQPEDFATYYCQQYYTYPLTFGGGTKVEIK
B8: antibody 536 (antibody, V domains shown)
VH: QVQLVESGGGVVQPGRSLRLSCAASGFTFSSYVMHWVRQAPGKGLEWVALISYDGSNKYYADSVKGRFTISRDNSKNTLYLQMNSLRAEDTAVYYCARGGHIRVGRYFDWLISYFDYWGQGTLVTVSS
VL: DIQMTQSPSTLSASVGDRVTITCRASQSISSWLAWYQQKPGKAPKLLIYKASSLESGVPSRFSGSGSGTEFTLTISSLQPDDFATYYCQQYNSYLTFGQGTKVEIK
B9: antibody 537 (antibody, V domains shown)
VH: QVQLQQWGAGLLKPSETLSLTCAVYGGSFSGYYWSWIRQPPGKGLEWIGEINHSGSTNYNPSLKSRVTISVDTSKNQFSLKLSSVTAADTAVYYCARGLYYDMGGGFDYWGQGTLVTVSS
VL: not shown
B10: antibody 543 (antibody, V domains shown)
VH: EVQLVESGGGLVQPGRSLRLSCAASGFTFHDYAMHWVRQAPGKGLEWVSGISWNSGSIGYADSVKGRFTISRDNAKNSLYLQMNSLRAEDTALYYCAKDTFGSSSWYRGDSYYYYGMDVWGQGTTVTVSS
VL: QSALTQPASVSGSPGQSITISCTGTSSDVGGYNYVSWYQQHPGKAPKLMIYEVSNRPSGVSNRFSGSKSGNTASLTISGLQAEDEADYYCSSYTSSSTQRYVVFGGGTKLTVL
B11: antibody 545 (antibody, V domains shown)
VH: QVQLVQSGSELKKPGASVKVSCKASGYTFTSYAMNWVRQAPGQGLEWMGWINTNTGNPTYAQGFTGRFVFSLDTSVSTAYLQISVLKAEDTGVYYCARDHELPNSSSWFGHFEYWGQGTLVTVSS
VL: SYELTQPPSVSVSPGQTARITCSGDALPKQYAYWYQQKAGQAPVLVIYKDSERRSGIPERFSGSSSGTTVTLTISGVQAEDEADYYCQSADSSGTSVVFGGGTKLTVL
B12: antibody 546 (antibody, V domains shown)
VH: QVQLVESGGGVVQPGRSLRLSCAASGFTFSSYGMHWVRQAPGKGLEWVAVIWYDGSNKYYADSVKGRFTISRDNSKNTLYLQMNSLRAEDTAVYYCARNCGGDCVAGDGFDYWGQGTLVTVSS
VL: DIQMTQSPSSLSASVGDRVTITCRASQSISSYLNWYQQKPGKAPNLLIYAASSLQSGVPSRFSGSGSGTDFTLTISSLQPEDFATYYCQQSYSALTWTFGQGTKVEIK
B13: antibody 547 (antibody, V domains shown)
VH: QVHLVESGGGVVQPGRSLRLSCAASGFALSSYAMHWVRQPPGKGLEWVALISYDGSVKKYADSVKGRITVSGDNSRNTLHLQINSLRADDTAVYYCVRGGVSGPNSFDLWGHGTMVTVSS
VL: DVVLTQSPLSLPVTLGQPASISCRSSQSLEYSVGNTYVNWFQQRPGQSPRRLIYKVSNRDSGVPDRFSGSGSGTDFTLQISRVEADDVGIYYCMQGTHWPVTFGQGTKVEIK
B14: antibody 548 (antibody, V domains shown)
VH: QVQLVESGGGVVQPGRSLRLSCAASGFTFSSYAMHWVRQAPGKGLEWVAVISYDGSNKYYADSVKGRFTISRDNSKNTLYLQMNNLRAEDTAVYYCAKSGSGSYLSAFDIWGQGTMVTVSS
VL: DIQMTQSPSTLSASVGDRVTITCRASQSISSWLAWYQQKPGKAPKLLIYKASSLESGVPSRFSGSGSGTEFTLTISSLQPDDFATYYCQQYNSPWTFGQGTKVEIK
B15: antibody 385 (antibody, V domains shown)
VH: QVQLVESGGGVVQPGRSLRLSCAASGFTFSSYAIHWVRQAPGKGLEWVAVISYDGSNKYYADSVKGRFTISRDNSKNTLYLQMNSLRAEDTAVYYCARPRSGSYWGAFDIWGQGTMVTVSS
VL: QSVLTQPPSVSGAPGQRVTISCTGSSSNIGARYDVHWYQQLPGTAPKLLIYGNSNRPSGVPDRFSGSKSGTSASLAITGLQAEDEADYYCQSYDSSLRGVFGGGTKLTVL
B16: antibody 392 (antibody, V domains shown)
VH: QVQLQESGPGLVKPSGTLSLTCAVSGGSISSSNWWSWVRQPPGKGLEWIGEIYHSGSTNYNPSLKSRVTISVDKSKNQFSLKLSSVTAADTAVYYCARGWRATLYGMDVWGQGTTVTVSS
VL: QSALTQPASVSGSPGQSITISCTGTSSDVGSYNLVSWYQQHPGKAPKLMIYEVSKRPSGVSNRFSGSKSGNTASLTISGLQAEDEADYYCCSYAGSSTWVFGGGTKLTVL

Target: SARS-CoV-2 full length spike protein (wild-type), conjugated to optically encoded beads (SARS-CoV-2, UniProt P0DTC2 14-1208)

Point of comparison: B7, “median fluorescence fold over isotype” value 23.4 fold over isotype. Against it:
- B1 — higher, 709 fold over isotype
- B2 — higher, 496 fold over isotype
- B3 — higher, 434 fold over isotype
- B4 — higher, 433 fold over isotype
- B5 — higher, 30.8 fold over isotype
- B6 — higher, 148 fold over isotype
- B8 — higher, 643 fold over isotype
- B9 — higher, 787 fold over isotype
- B10 — higher, 802 fold over isotype
- B11 — higher, 939 fold over isotype
- B12 — higher, 1160 fold over isotype
- B13 — higher, 606 fold over isotype
- B14 — higher, 642 fold over isotype

Target: SARS-CoV spike protein (full length spike, trimeric, conjugated to beads) (SARS-CoV, UniProt P59594 14-1190)

Point of comparison: B16, “median fluorescence fold over isotype control” value 1.08 fold over isotype control. Against it:
- B15 — higher, 59.6 fold over isotype control
